Measurements published in article PMC10473253, “A novel salt- and organic solvent-tolerant phosphite dehydrogenase from Cyanothece sp. ATCC 51142” (Frontiers in Bioengineering and Biotechnology, 2023).

Experiments:
Assay in all cases: purified protein
Type in all cases: biochemical, Crocosphaera subtropica
purified protein [1] = substrate: NC(=O)c1ccc[n+]([C@@H]2O[C@H](COP(=O)(O)OP(=O)(O)OC[C@H]3O[C@@H](n4cnc5c(N)ncnc54)[C@H](OP(=O)(O)O)[C@@H]3O)[C@@H](O)[C@H]2O)c1; conditions: 1.0 mM phosphite, 100 mM MOPS pH 7.3, 37°C
purified protein [2] = substrate: NC(=O)c1ccc[n+]([C@@H]2O[C@H](COP(=O)(O)OP(=O)(O)OC[C@H]3O[C@@H](n4cnc5c(N)ncnc54)[C@H](O)[C@@H]3O)[C@@H](O)[C@H]2O)c1; conditions: 1.0 mM phosphite, 100 mM MOPS pH 7.3, 37°C, text b35 prints kcat 2.24 ± 0.15
purified protein [3] = substrate: O=[PH](O)O; conditions: 1.0 mM NAD+ as co-substrate, 100 mM MOPS pH 7.3, 37°C

B1: Ct-PtxD (Crocosphaera subtropica ATCC 51142) (protein)
chain: MNQKPKVVITHWVHPEIIDYLTPHCELILNQTKETLTREEVINRSKDAQGLMVFMPDYIDVNFLEACPQLKVISGALRGYDNFDVEACTKRNIWFTIVPDLLAAPTAELTIGLLLILARRMVEGDRLIRSGNFQGWKPQLYSTGLLNKTLGIIGMGKLGKALTKRLMGFDMTLLYHDKITLTSQQERDWKITKTSLEELLTKSDYVVLMVPLVPDTYHLINENSLKMMKPNSFLINPCRGSIVDETAVATAIKSGHLAGYAADVFEMEDWAIANRPQSINQTLLTDINHTFFTPHLGSAVNEVRRDIALEAAKNIIEVLSENRPQGAVNGIV
notes: full-length, 332 residues; pET-21b(+) NdeI/XhoI, His-tagged, E. coli Rosetta2 (DE3) pLysS
- Km (purified protein [1]): 122 ± 4 µM
- Km (purified protein [2]): 9.07 ± 1.05 µM
- Km (purified protein [3]): 168 ± 25 µM
